Results as given in the nanobody polyreactivity screen of Harvey et al. (2022).

assay: yeast display, Sf9 membrane polyspecificity reagent, FACS + sequencing; frameworks hold sequencing errors
How it was run: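 Using colony PCR, genes from sorted yeast display clones were amplified, then sequenced on MiSeq at 2 × 250 and filtered by CDR length. The clones had been stained with 10% biotinylated, detergent-solubilized Sf9 membrane reagent for 1 hour at 4 °C and sorted by FACS into low and high (top ~1%) gates on anti-HA and streptavidin fluorescence. Polyreactivity labels come from the gate of origin.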

Row | Sequence | polyreactivity (PSR sort gate)
1 | QVQLVESGGALVQAGGSLRLSCAASGSIFSRYTMGWYRQAPGKERELVAAIPSSGGRTYYADSVKGRFTNSRDNAKNTVYLQMNSLKPEDTAVYYCNAGGAYEYDYWGQGTQVTVSS | high polyreactivity
2 | QVQLVESGGALVQAGGSLRLSCAASGSIFYVYAMGWYRQAPGKEREFVAAITWSGGRTYYADSVKGRFTISRDNAKNTVYLQMNSLKPEDTAVYYCAAGKYRYTYYALEYDYWGQGTQVTVSS | low polyreactivity
3 | QVQLVESGGALVQAGGSLRLSCAASGSIYGGYTMGWYRHAPGKEMEFVAAISRRGGNTYYADSVKGRFTISRDNAKNTVYLQMNSLKPEDTAVYYCAVRWPSARIQVKLDYWGQGTQVTVSS | high polyreactivity
4 | QVQLVESGGALVQAGGSLRLSCAASGSTFDANVMGWYRQAPGKERELVAAISRDTNTYYADSVKGRFTISRDNAKNTVYLQMNSLKPEDTAVYYYWGQGTQVTVSS | low polyreactivity
5 | QVQLVESGGALVQAGGSLRLSCAASGSTFFHYAMGWYRQAPGKERELVAAIDSNGGSTYYADSVKGRFTISRDNAKNTVYLQMNSLKPEDTAVYYCAADDLAEFEYDYWGQGTQVTVSS | low polyreactivity
6 | QVQLVESGGALVQAGGSLRLSCAASGSTSVDYTMGWYRQAPGNDKDLVAAIDYNGDSTYYADSEKGRFTISRDNAKNTFYLQMNSLKPEDTAVYYCAADVWTLDPEVYDYWGPGTQVTVSS | low polyreactivity
7 | QVQLVESGGALVQAGGSLRLSCAASGYIFAYYAMGWYRQAPGKERELVATISYGGGSTYYADSVKGRFTISRDNAKNTVYLQMNSLKPEDTAVYYCAAVPWASDGYYSWGQGTQVTVSS | low polyreactivity
8 | QVQLVESGGALVQAGGSLRLSCAASGYIFRYYAMGWYRQAPGKVREFVAAISRNGGSKSYADSVKGRFTISRDNAKNTVYLQMISLKPEDTAVYYCNKRVGFLYKSDYWGQGTQVTVSS | high polyreactivity
9 | QVQLVESGGALVQAGGSLRLSCAYSGLTFYGNTMGWYRQAPGKERELDAAITYSGTRTYYADSVKGRFTISRDTAKNTVYLQMNSLKPEDTAVYYCNALSYANSIDTYDYWGQVTQVTVSS | high polyreactivity
10 | QVQLVESGGALVQAGGSLRLSCGASGSTFHPYAMGWYRQAPGKERELVGAITWRVGSTYYADSVKGRFTISRDNAKNTVYLQMNSLKPEETAVYYCAVSYLSTLVRSRYDYWGQGTQVTVSS | low polyreactivity
11 | QVQLVESGGALVQAGGSLRLSCSASGSIFHGYIMGWYRQAPGKERELVAAITTGGSTNYADSVKGRFTISRDNAKNTVYLQMNSLKPEDTAVYDCATDPYVDPSRDYLELGGYWGQGTQVTVSS | low polyreactivity
12 | QVQLVESGGALVQAGGSLRLTCAASGSIYYVNAMGWYRQAPGKERELVAAISVRGGRTYYADSVKGRFTISRDNAKNTFYLQMNSLKPEDTEVYYCATRISTVGRYDYWGQGTQVTVSS | high polyreactivity
13 | QVQLVESGGALVQAGGSLRVSCAASGFIFYGYAMGWYRQAPGKERELVAAISSGGGRTYYADSVKGRFTISRDNAKNTVYLQMNSLKPEDTAVYYCAAKVYYYTGGGGEDYWGQGTQVTVSS | low polyreactivity
14 | QVQLVESGGALVQAGGSLSLSCAASGSTYSYYAMGWYRQAPGKETEVVAAINRSGGSTYYADSVKGRFTISRDNAKYTVYLQMNSLKPEDTAVYYCAALRSKTVSYDRYDYWGQGTQVTVSS | high polyreactivity
15 | QVQLVESGGCIVQAGGSLRLSCAASGLIFGPYAMGWYRQAPGKERELVAAISARGGSTYYADSVKGRFTISRDNAKNTVYLQMNSLKPEDTAVYYCAARQYSVNTHYGYNYWGQGTQVTVSS | high polyreactivity
16 | QVQLVESGGCIVQAGGSLRLSCAASGRNLAPNAMGWSRQAPGKERELVAGITWSGGSTYYADSVKGRFTISRDNAKNTVYLPMNSLKPEDTAVYYCAACRSFPGYGLYYYWGQGTQVTVSS | low polyreactivity
17 | QVQLVESGGCIVQAGGSLRLSCAAYGRIFAKYVMGWSRKAPGKERELVAAITSSGGSTYYADSVKGRFTISRDNAKNTVYVQMNSLKSEDTAVYYGAAGPSYHSSYYSWGQVTQVTVSS | high polyreactivity
18 | QVQLVESGGCLEQAGGSLRLSCAASGFTFVSNDMGWYRQAPGKERELVAAISQGGGSTYYADSVKGRFTISRDNAKNTVYLQMNSLKPEDTAVYYCAAEDVYFGYDYWGQGTQVTVSS | low polyreactivity
19 | QVQLVESGGCLGQAGGSLRLTCAASAFTFRHYTKGWYRQAPGKVRVLVAVITRSGGSTYYADSVKGRFTISRDNAKNTVYLQMNRLKPEDTAVYYCAARYKREYNYWGQGTQVTVSS | high polyreactivity
20 | QVQLVESGGCLLQAGGSLRLSCAASGFTFRKNAMGWYRDAPGKERQLVAAISSGTSTYYADSVKVRFTISRDNAKNTVYLQMNSLKPEDTAVYYCAAARYRTDDYCGQGTQVTVSS | high polyreactivity
21 | QVQLVESGGCLVPAGGSLRLSCAASGRTFYYNAMGWYRQAPGKERELVAAISSSGGRTYYADSVKGRFTISRDNGKNTVYLQMNSLKPEDTAVFYCAALTNARGFDYWGQGTQVTVSS | high polyreactivity
22 | QVQLVESGGCLVQAGGRLRLSCAASGRIFYRYSMGWYRQAPGKERELVAAINDVGSTYYADSVKGRFTISRDNAKNTVYLQMNILKPEDTAVYYCNGVNEHQSDFVVPFDYNHWGQGTQVTVSS | low polyreactivity

Row | Sequence | polyreactivity (PSR sort gate)
23 | QVQLVESGGCLVQAGGSIRLSCAASGSTFDINAMGWYRQAPGKERELVASITFSGGSTYYADSVKGRFTISRDNAKNTGYLQMNSLKPEDTAVYYCAADSSGEYPGGYWGQGTQVTVSS | low polyreactivity
24 | QVQLVESGGCLVQAGGSLRFSCAASGIIFYGYAMGWYRQAPGKERELVAAISERGGSTYYADSVKGRFTISRDNAKNTVYLQMNSLKPEDTAVYYCAVDYYYLMYWGQGTQVTVSS | low polyreactivity
25 | QVQLVESGGCLVQAGGSLRFSCAASGSTFHRYVMGWYRQAPGKERELVAVINSTGGSTYYADSVKGRYTISRDNAKNTVYLQMNSLKPEDTAVYYCARVTRRGPGYTTLYSRYDYWGQGTQVNVSS | low polyreactivity
26 | QVQLVESGGCLVQAGGSLRLICAASGSTFLLNAMGWYRQAPGKVRELVAAITSSGRTNYADSVKGRFTISRDNAKNTVYLQMNSLKPEDTAVYYCNTRYSPGYQGTDVDYWRQGTQVTVSS | low polyreactivity
27 | QVQLVESGGCLVQAGGSLRLICAASGSTFRRYAMGWYRQAPGKERELVATISKSGGSTYYADSVKGRFTISRDNAKNTVYLQMNSLKPEDTAVYYCAARSFFYRVSDRRAYIDTNGYWGQGTQVTVSS | high polyreactivity
28 | QVQLVESGGCLVQAGGSLRLRCAASGRIFLRYDMGWYRQAPGKERELVAAISSGASTYYADSVKGRFTISRDNAKNTVYLQMNSLKPEDTAVFYCAVDRPYYYGYRMDYWGQGSQVTVSS | low polyreactivity
29 | QVQLVESGGCLVQAGGSLRLRCAASGRTLRCYAMGWYRQAPGKEREFVAAISRGTVGTYYADSVKGRFTISRDNAKNTVYLQMNSLKPEDTAVYYCAADRFAYFTNLRLGYYSWGQGTQVTVSS | low polyreactivity
30 | QVQLVESGGCLVQAGGSLRLRCAASGSTFDDNVKGWYRPAPRKDRELVAAISSSGGSTYYADSVKGRFTISRDNAKNTVYLQMNSLKPEDTAVYYCNAVYFGLWGYYSRRSYNYWGQGTQVNVSS | low polyreactivity
31 | QVQLVESGGCLVQAGGSLRLSCAASGFIFRRYALGWNRQAPGKERELVAAISSSGGRTTYADSVKGRFTISRDNAKNTVYLQMNSLKPEDTAVYYCNADLCPGNHDGYWGQGTQVTVSS | low polyreactivity
32 | QVQLVESGGCLVQAGGSLRLSCAASGFIFSRNAIGWYRQAHGKERELVAAISLRGGSTYYADSVKGRFTISRDYAKNTVYLQMNSLKPEDTAVYYCAAPLFSGYDYWVQGTQVTVSS | low polyreactivity
33 | QVQLVESGGCLVQAGGSLRLSCAASGFIFSYYALGWYRQAPGKERELVAAITWDGGSTYYADSVKGRFTISRDNAKNSVYLQMNSLKPEDTAVYYCNAYYYYRRPLEGGYWGQGTQVTVSS | low polyreactivity
34 | QVQLVESGGCLVQAGGSLRLSCAASGFTFGPYDMGWYRQAPGKERELVAVIIGGDSTNYADSVKGRFTISRDNAKNTVYLQLNSLKPEVTAVYYCAADYIDRVGWMDYWGQGTQVTVSS | low polyreactivity
35 | QVQLVESGGCLVQAGGSLRLSCAASGFTFSYYAMGWYRQAPGKERELVAAISSSSGTTYYADSVKRRFTISRDNANNTVYLQMNSLKPEDTAVYYCVVIARDGYDYWGQGTQVTVSS | high polyreactivity
36 | QVQLVESGGCLVQAGGSLRLSCAASGFTLTAYAMGWYRQAPGKEREFVAAISTSGTRTYYADSVKGRFTISRDNAKITVYLQMYSLKPDDTAVYYCAARYSGYQYWKFNYWGQGTQVTVSS | high polyreactivity
37 | QVQLVESGGCLVQAGGSLRLSCAASGGTFVTYAMGWYRQAPGKERELVAAITTGGSTYYADSVKGRFTISRDNAKNTVYLQMNSLKPEDSAVYYCAAVYTGSGKRYYKGYYWGQGTQVTVSS | low polyreactivity
38 | QVQLVESGGCLVQAGGSLRLSCAASGIIFYQNSMGWYRQAPGKERELVAAISRSGGTTYYADSVKGRFTISRDNAKNTVYLLMNSVNPEVTAVYYCAAVGTGSGYYYWGQGTQVTVSS | high polyreactivity
39 | QVQLVESGGCLVQAGGSLRLSCAASGITLRYYAMGWYRQAPGKERELDAAISSGGRTYYADSVKGRFTISRDNATKTVYLPLNSLKPEETAVYYCNVVWSVTYDYWGHGTQVTVSS | high polyreactivity
40 | QVQLVESGGCLVQAGGSLRLSCAASGLTFKWNTMGWYRQAPGKESELVAAISWRVVSTYYADSVKGRFTISRDNAKNTVYLQMNSLKPEDTAVYYDYWGQGTQVTVSS | low polyreactivity
41 | QVQLVESGGCLVQAGGSLRLSCAASGLTFSWYAMGWYRQAPGKERELVAAISTRGGRTYYADSVKGRFTISRDNAKNTVYLQMNSLKPEDTAVYYCAAGVSYRYLWLVDYWGQGTQVTVSS | high polyreactivity
42 | QVQLVESGGCLVQAGGSLRLSCAASGNTFSTYTMGWYRQAPGKERELVAALTRSRGRTYYADSVKGRFTISRDTAKNTVYLQMNSLKPEDTAVYYCNAYTADLDDYWGQGNQVTVSS | high polyreactivity
43 | QVQLVESGGCLVQAGGSLRLSCAASGRIFDHYAMGWYRQAPGKERELVAAITRSGGITYYADSVKGRFTISRDNAKNTVYLQMNSLKPDDTAVFYCAAYLKGNYYLGIARYVLYYWGQGTQVTVSS | low polyreactivity
